This passage reports protein stability index results from the supplement of paper PMC10567573.

The chains are these.
B1: FAM189A2 (parent)
chain: CALNALTTTVCLVAAALRYLQIFA
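Also: lentivirally expressed fusions sorted by FACS into six bins by GFP to DsRed ratio, PSI derived from sequencing read proportions per bin multiplied by bin number.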

The data set covers variants of B1. The experiment in a line: protein stability index of a GFP-peptide fusion (GPS, HEK-293T) (PSI 1-6); higher = more stable. The conditions noted are these: c terminus: a fixed tail appended.
With CALNALTNTVCLVAAALRYLQIFA [T8N], the protein stability index was found to be 3.77.

Regarding CALNALTWTVCLVAAALRYLQIFA [T8W], the protein stability index amounted to 3.44.

Take CALNALTGTVCLVAAALRYLQIFA [T8G]: the protein stability index came out at 1.91.

Consider CALNALTETVCLVAAALRYLQIFA [T8E], for which the protein stability index was determined as 4.29.

As for CALNALRTTVCLVAAALRYLQIFA [T7R], the protein stability index is 2.34.

For CALNALATTVCLVAAALRYLQIFA [T7A], the protein stability index was found to be 3.07.

On to CALNALQTTVCLVAAALRYLQIFA [T7Q], for which the protein stability index was 3.37.

As to CALNALWTTVCLVAAALRYLQIFA [T7W], the protein stability index worked out at 2.89.

Regarding CALNALYTTVCLVAAALRYLQIFA [T7Y], the protein stability index is 3.46.

CALNALGTTVCLVAAALRYLQIFA [T7G]: the protein stability index is 2.78.

For CALNALKTTVCLVAAALRYLQIFA [T7K], the protein stability index turned out to be 1.87.

As for CALNALMTTVCLVAAALRYLQIFA [T7M], the protein stability index worked out at 4.03.

As for CALNALDTTVCLVAAALRYLQIFA [T7D], the protein stability index amounted to 2.18.

As to CALNALSTTVCLVAAALRYLQIFA [T7S], the protein stability index was 2.85.

CALNALNTTVCLVAAALRYLQIFA [T7N]: the protein stability index worked out at 3.42.

With CALNALCTTVCLVAAALRYLQIFA [T7C], the protein stability index came to 3.6.

In the case of CALNALPTTVCLVAAALRYLQIFA [T7P], the protein stability index came to 3.27.

Take CALNALITTVCLVAAALRYLQIFA [T7I]: the protein stability index amounted to 3.6.

Regarding CALNALFTTVCLVAAALRYLQIFA [T7F], the protein stability index worked out at 2.06.

With CGLNALTTTVCLVAAALRYLQIFA [A2G], the protein stability index is 3.74.

With CFLNALTTTVCLVAAALRYLQIFA [A2F], the protein stability index came out at 4.07.

With CYLNALTTTVCLVAAALRYLQIFA [A2Y], the protein stability index is 3.17.

Turning to CKLNALTTTVCLVAAALRYLQIFA [A2K], the protein stability index was found to be 3.83.

Turning to CNLNALTTTVCLVAAALRYLQIFA [A2N], the protein stability index was 3.43.

In the case of CWLNALTTTVCLVAAALRYLQIFA [A2W], the protein stability index came out at 2.26.

Turning to CMLNALTTTVCLVAAALRYLQIFA [A2M], the protein stability index was determined as 2.77.

Consider CRLNALTTTVCLVAAALRYLQIFA [A2R], for which the protein stability index stood at 3.42.

Take CQLNALTTTVCLVAAALRYLQIFA [A2Q]: the protein stability index turned out to be 3.74.

Turning to CPLNALTTTVCLVAAALRYLQIFA [A2P], the protein stability index was 3.11.

With CILNALTTTVCLVAAALRYLQIFA [A2I], the protein stability index stood at 2.77.

With CDLNALTTTVCLVAAALRYLQIFA [A2D], the protein stability index was 4.37.

For CTLNALTTTVCLVAAALRYLQIFA [A2T], the protein stability index was 4.22.

In the case of YALNALTTTVCLVAAALRYLQIFA [C1Y], the protein stability index came to 2.99.

As for GALNALTTTVCLVAAALRYLQIFA [C1G], the protein stability index turned out to be 2.6.

Take SALNALTTTVCLVAAALRYLQIFA [C1S]: the protein stability index was determined as 3.48.

Turning to PALNALTTTVCLVAAALRYLQIFA [C1P], the protein stability index stood at 1.11.

Regarding DALNALTTTVCLVAAALRYLQIFA [C1D], the protein stability index came out at 2.46.

Turning to QALNALTTTVCLVAAALRYLQIFA [C1Q], the protein stability index stood at 3.13.

For NALNALTTTVCLVAAALRYLQIFA [C1N], the protein stability index was 3.61.

On to TALNALTTTVCLVAAALRYLQIFA [C1T], for which the protein stability index is 3.21.

On to FALNALTTTVCLVAAALRYLQIFA [C1F], for which the protein stability index came out at 4.75.

Turning to IALNALTTTVCLVAAALRYLQIFA [C1I], the protein stability index came out at 2.86.

Take AALNALTTTVCLVAAALRYLQIFA [C1A]: the protein stability index is 2.05.

As to HALNALTTTVCLVAAALRYLQIFA [C1H], the protein stability index came out at 2.7.

Regarding LALNALTTTVCLVAAALRYLQIFA [C1L], the protein stability index is 1.59.

For RALNALTTTVCLVAAALRYLQIFA [C1R], the protein stability index worked out at 3.14.

Consider KALNALTTTVCLVAAALRYLQIFA [C1K], for which the protein stability index came to 3.08.

For the variant VALNALTTTVCLVAAALRYLQIFA [C1V], the protein stability index is 1.85.

Consider CALAALTTTVCLVAAALRYLQIFA [N4A], for which the protein stability index was 1.84.

Regarding CALHALTTTVCLVAAALRYLQIFA [N4H], the protein stability index is 3.53.

With CALDALTTTVCLVAAALRYLQIFA [N4D], the protein stability index is 2.85.

On to CALPALTTTVCLVAAALRYLQIFA [N4P], for which the protein stability index turned out to be 2.66.

Turning to CALVALTTTVCLVAAALRYLQIFA [N4V], the protein stability index is 3.46.

Take CALSALTTTVCLVAAALRYLQIFA [N4S]: the protein stability index amounted to 3.62.

Turning to CALGALTTTVCLVAAALRYLQIFA [N4G], the protein stability index worked out at 2.34.

In the case of CALIALTTTVCLVAAALRYLQIFA [N4I], the protein stability index is 2.87.

With CALRALTTTVCLVAAALRYLQIFA [N4R], the protein stability index is 3.01.

For the variant CALCALTTTVCLVAAALRYLQIFA [N4C], the protein stability index was found to be 2.79.

As for CALKALTTTVCLVAAALRYLQIFA [N4K], the protein stability index amounted to 2.35.

CALFALTTTVCLVAAALRYLQIFA [N4F]: the protein stability index is 2.81.

Consider CALEALTTTVCLVAAALRYLQIFA [N4E], for which the protein stability index turned out to be 2.1.

For the variant CALWALTTTVCLVAAALRYLQIFA [N4W], the protein stability index is 2.84.

For CALTALTTTVCLVAAALRYLQIFA [N4T], the protein stability index is 2.17.

Take CARNALTTTVCLVAAALRYLQIFA [L3R]: the protein stability index turned out to be 2.9.

With CACNALTTTVCLVAAALRYLQIFA [L3C], the protein stability index is 4.07.

Turning to CANNALTTTVCLVAAALRYLQIFA [L3N], the protein stability index came to 2.3.

In the case of CATNALTTTVCLVAAALRYLQIFA [L3T], the protein stability index was determined as 2.98.

With CASNALTTTVCLVAAALRYLQIFA [L3S], the protein stability index worked out at 2.

Regarding CAINALTTTVCLVAAALRYLQIFA [L3I], the protein stability index was determined as 1.61.

In the case of CAWNALTTTVCLVAAALRYLQIFA [L3W], the protein stability index came out at 1.62.

For CAPNALTTTVCLVAAALRYLQIFA [L3P], the protein stability index stood at 3.65.

On to CADNALTTTVCLVAAALRYLQIFA [L3D], for which the protein stability index came out at 3.27.

Take CAQNALTTTVCLVAAALRYLQIFA [L3Q]: the protein stability index was found to be 3.

Consider CAANALTTTVCLVAAALRYLQIFA [L3A], for which the protein stability index worked out at 3.13.

CAKNALTTTVCLVAAALRYLQIFA [L3K]: the protein stability index came to 1.92.

Regarding CAFNALTTTVCLVAAALRYLQIFA [L3F], the protein stability index turned out to be 3.52.

With CAHNALTTTVCLVAAALRYLQIFA [L3H], the protein stability index was determined as 2.11.

For CAVNALTTTVCLVAAALRYLQIFA [L3V], the protein stability index stood at 2.62.

Consider CAENALTTTVCLVAAALRYLQIFA [L3E], for which the protein stability index came to 3.25.

For the variant CALNQLTTTVCLVAAALRYLQIFA [A5Q], the protein stability index was found to be 3.79.

For CALNLLTTTVCLVAAALRYLQIFA [A5L], the protein stability index turned out to be 2.77.

As for CALNCLTTTVCLVAAALRYLQIFA [A5C], the protein stability index stood at 3.07.

As for CALNSLTTTVCLVAAALRYLQIFA [A5S], the protein stability index was 3.5.

As to CALNTLTTTVCLVAAALRYLQIFA [A5T], the protein stability index was 3.6.

As to CALNYLTTTVCLVAAALRYLQIFA [A5Y], the protein stability index is 3.68.

Regarding CALNNLTTTVCLVAAALRYLQIFA [A5N], the protein stability index was determined as 2.07.

For the variant CALNELTTTVCLVAAALRYLQIFA [A5E], the protein stability index stood at 3.02.

As for CALNVLTTTVCLVAAALRYLQIFA [A5V], the protein stability index is 1.92.

On to CALNRLTTTVCLVAAALRYLQIFA [A5R], for which the protein stability index came to 2.98.

Take CALNILTTTVCLVAAALRYLQIFA [A5I]: the protein stability index came to 3.46.

Regarding CALNPLTTTVCLVAAALRYLQIFA [A5P], the protein stability index is 2.7.

CALNMLTTTVCLVAAALRYLQIFA [A5M]: the protein stability index stood at 3.65.

CALNFLTTTVCLVAAALRYLQIFA [A5F]: the protein stability index came to 2.29.

In the case of CALNKLTTTVCLVAAALRYLQIFA [A5K], the protein stability index turned out to be 4.99.
